{
  "source": "paper PMC8173049",
  "key": {"[1]": {"molecular_target": "HAdV-B35 capsid (replication-defective, E1-deleted vector particle with a YFP expression cassette) (human adenovirus B35)", "assay": "SPR; BIAcore 3000; HAdV particles amine-coupled to a CM5 chip (3,500-4,000 RU, diluted in acetate buffer pH 4); lactoferrin 6.25-200 nM injected at 30 µl/min, 180 s association, 600 s dissociation; HBS-EP buffer (10 mM HEPES, 150 mM NaCl, 3 mM EDTA, 0.005% polysorbate 20, pH 7.4); bivalent fitting model"}, "[2]": {"molecular_target": "HAdV-C5 capsid (replication-defective, E1-deleted vector particle with a GFP expression cassette) (human adenovirus C5) (UniProt P04133)", "assay": "SPR; BIAcore 3000; HAdV particles amine-coupled to a CM5 chip (3,500-4,000 RU, diluted in acetate buffer pH 4); lactoferrin 6.25-200 nM injected at 30 µl/min, 180 s association, 600 s dissociation; HBS-EP buffer (10 mM HEPES, 150 mM NaCl, 3 mM EDTA, 0.005% polysorbate 20, pH 7.4); bivalent fitting model"}},
  "data": [
    {"substance": "human lactoferrin (natural protein)", "values": [
      {"measurement": "Kd", "setting": "[1]", "value": 54, "unit": "µM"},
      {"measurement": "Kd", "setting": "[2]", "value": 0.8, "unit": "µM"}
    ]}
  ]
}
